Source: patent US11137400

Columns and labels:
[1] = biological target: T1, Affinity-purified GST-tagged hXBP1s S288A mutant
T1 chain: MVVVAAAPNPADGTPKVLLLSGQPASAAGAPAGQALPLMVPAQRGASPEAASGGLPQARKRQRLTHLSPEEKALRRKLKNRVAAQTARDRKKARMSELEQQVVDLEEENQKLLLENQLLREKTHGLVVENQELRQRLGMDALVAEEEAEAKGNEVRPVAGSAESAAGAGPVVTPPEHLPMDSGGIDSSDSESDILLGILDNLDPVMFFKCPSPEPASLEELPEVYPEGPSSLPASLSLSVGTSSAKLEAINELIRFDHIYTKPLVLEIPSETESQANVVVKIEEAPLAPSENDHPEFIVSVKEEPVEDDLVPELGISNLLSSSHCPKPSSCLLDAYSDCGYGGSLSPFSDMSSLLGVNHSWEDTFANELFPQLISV

[2] = biological target: T2, Affinity-purified GST-tagged wild type (WT) hXBP1s
T2 chain: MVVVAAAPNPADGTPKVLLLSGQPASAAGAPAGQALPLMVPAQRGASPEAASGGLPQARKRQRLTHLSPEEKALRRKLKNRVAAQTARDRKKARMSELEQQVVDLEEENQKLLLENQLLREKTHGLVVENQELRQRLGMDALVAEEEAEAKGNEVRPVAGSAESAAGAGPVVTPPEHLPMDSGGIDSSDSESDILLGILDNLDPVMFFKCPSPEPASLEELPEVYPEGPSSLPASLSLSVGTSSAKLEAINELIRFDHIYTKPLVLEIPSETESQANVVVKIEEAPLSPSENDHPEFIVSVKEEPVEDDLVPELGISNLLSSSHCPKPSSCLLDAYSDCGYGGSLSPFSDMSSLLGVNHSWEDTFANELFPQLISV

[3] = biological target: T3, HA tagged hXBP1s (HA-hXBP1s), wild type, expressed in HEK293T cells
T3 chain: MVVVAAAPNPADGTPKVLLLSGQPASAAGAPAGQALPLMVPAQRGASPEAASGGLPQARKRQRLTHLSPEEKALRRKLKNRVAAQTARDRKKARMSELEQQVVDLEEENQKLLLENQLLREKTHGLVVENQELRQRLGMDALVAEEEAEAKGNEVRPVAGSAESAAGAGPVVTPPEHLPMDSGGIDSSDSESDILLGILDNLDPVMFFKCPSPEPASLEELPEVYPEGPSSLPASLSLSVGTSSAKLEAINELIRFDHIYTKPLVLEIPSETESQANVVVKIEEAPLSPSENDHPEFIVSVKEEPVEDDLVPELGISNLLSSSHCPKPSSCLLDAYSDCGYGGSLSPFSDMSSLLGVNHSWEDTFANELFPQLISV

Row | Protein | in vitro kinase assay, phosphorylation in the presence of ^32P (autoradiography) [1] | in vitro kinase assay, phosphorylation in the presence of ^32P (autoradiography) [2] | ubiquitination assay (conjugation of MYC-Ub to HA-hXBP1s, anti-HA immunoprecipitation probed with anti-MYC) [3]
1 | Active recombinant human JNK1α1 (Millipore) (protein) MSRSKRDNNFYSVEIGDSTFTVLKRYQNLKPIGSGAQGIVCAAYDAILERNVAIKKLSRPFQNQTHAKRAYRELVLMKCVNHKNIIGLLNVFTPQKSLEEFQDVYIVMELMDANLCQVIQMELDHERMSYLLYQMLCGIKHLHSAGIIHRDLKPSNIVVKSDCTLKILDFGLARTAGTSFMMTPYVVTRYYRAPEVILGMGYKENVDLWSVGCIMGEMVCHKILFPGRDYIDQWNKVIEQLGTPCPEFMKKLQPTVRTYVENRPKYAGYSFEKLFPDVLFPADSEHNKLKASQARDLLSKMLVIDASKRISVDEALQHPYINVWYDPSEAEAPPPKIPDKQLDEREHTIEEWKELIYKEVMDLEERTKNGVIRGQPSPLAQVQQ | mutation of Ser288 to A abolished JNKs-mediated phosphorylation of hXBP1s | JNK1, JNK2 or JNK3 was sufficient to directly phosphorylate hXBP1s | –
2 | Active recombinant human JNK3 (Millipore) (protein) MSLHFLYYCSEPTLDVKIAFCQGFDKQVDVSYIAKHYNMSKSKVDNQFYSVEVGDSTFTVLKRYQNLKPIGSGAQGIVCAAYDAVLDRNVAIKKLSRPFQNQTHAKRAYRELVLMKCVNHKNIISLLNVFTPQKTLEEFQDVYLVMELMDANLCQVIQMELDHERMSYLLYQMLCGIKHLHSAGIIHRDLKPSNIVVKSDCTLKILDFGLARTAGTSFMMTPYVVTRYYRAPEVILGMGYKENVDIWSVGCIMGEMVRHKILFPGRDYIDQWNKVIEQLGTPCPEFMKKLQPTVRNYVENRPKYAGLTFPKLFPDSLFPADSEHNKLKASQARDLLSKMLVIDPAKRISVDDALQHPYINVWYDPAEVEAPPPQIYDKQLDEREHTIEEWKELIYKEVMNSEEKTKNGVVKGQPSPSGAAVNSSESLPPSSSVNDISSMSTDQTLASDTDSSLEASAGPLGCCR | mutation of Ser288 to A abolished JNKs-mediated phosphorylation of hXBP1s | JNK1, JNK2 or JNK3 was sufficient to directly phosphorylate hXBP1s | –
3 | FLAG-β-TrCP1, expressed in HEK293T cells (protein) MDPAEAVLQEKALKFMCSMPRSLWLGCSSLADSMPSLRCLYNPGTGALTAFQNSSEREDCNNGEPPRKIIPEKNSLRQTYNSCARLCLNQETVCLASTAMKTENCVAKTKLANGTSSMIVPKQRKLSASYEKEKELCVKYFEQWSESDQVEFVEHLISQMCHYQHGHINSYLKPMLQRDFITALPARGLDHIAENILSYLDAKSLCAAELVCKEWYRVTSDGMLWKKLIERMVRTDSLWRGLAERRGWGQYLFKNKPPDGNAPPNSFYRALYPKIIQDIETIESNWRCGRHSLQRIHCRSETSKGVYCLQYDDQKIVSGLRDNTIKIWDKNTLECKRILTGHTGSVLCLQYDERVIITGSSDSTVRVWDVNTGEMLNTLIHHCEAVLHLRFNNGMMVTCSKDRSIAVWDMASPTDITLRRVLVGHRAAVNVVDFDDKYIVSASGDRTIKVWNTSTCEFVRTLNGHKRGIACLQYRDRLVVSGSSDNTIRLWDIECGACLRVLEGHEELVRCIRFDNKRIVSGAYDGKIKVWDLVAALDPRAPAGTLCLRTLVEHSGRVFRLQFDEFQIVSSSHDDTILIWDFLNDPAAQAEPPRSPSRTYTYISR | – | – | ectopically expressed β-TrCP greatly promoted the conjugation of ubiquitin to HA-hXBP1s
